T1: Evasin-1 (Rhipicephalus sanguineus, UniProt P0C8E7 21-114)
T1 sequence (looked up): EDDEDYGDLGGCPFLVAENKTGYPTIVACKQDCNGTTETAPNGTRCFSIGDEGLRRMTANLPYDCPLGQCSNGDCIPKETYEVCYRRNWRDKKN

T2: CXCL1 (human, UniProt P09341 35-107)
T2 sequence (looked up): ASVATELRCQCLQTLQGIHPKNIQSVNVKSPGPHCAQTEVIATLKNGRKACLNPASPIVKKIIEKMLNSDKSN

T3: KC (mouse, UniProt P12850 25-96)
T3 sequence (looked up): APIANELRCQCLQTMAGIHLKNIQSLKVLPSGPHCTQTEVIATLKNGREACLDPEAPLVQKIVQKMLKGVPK

T4: MIP-2 (mouse, UniProt P10889 28-100)
T4 sequence (looked up): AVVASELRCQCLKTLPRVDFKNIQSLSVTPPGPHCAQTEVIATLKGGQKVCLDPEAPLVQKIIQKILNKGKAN


What was measured:
Test in all cases: SPR
Evasin-1 = biological target: T1, Evasin-1
CXCL1 = biological target: T2, CXCL1
KC = biological target: T3, KC
MIP-2 = biological target: T4, MIP-2

Binder	Kd (Evasin-1)	koff (Evasin-1)	kon (Evasin-1)	Kd (CXCL1)	koff (CXCL1)	kon (CXCL1)	Kd (KC)	koff (KC)	kon (KC)	Kd (MIP-2)	koff (MIP-2)	kon (MIP-2)
murine MIP-1β (ligand, mouse, UniProt P14097 24-92, looked up) APMGSDPPTSCCFSYTSRQLHRSFVMDYYETSSLCSKPAVVFLTKRGRQICANPSEPWVTEYMSDLELN	0.15 nM	0.00058 ± 0.12 s⁻¹	3.84e+06 ± 1.42 M⁻¹ s⁻¹	–	–	–	–	–	–	–	–	–
CCL4 (ligand, human, UniProt P13236 24-92, looked up) APMGSDPPTACCFSYTARKLPRNFVVDYYETSSLCSQPAVVFQTKRSKQVCADPSESWVQEYVYDLELN	0.51 nM	0.0022 ± 0.18 s⁻¹	4.29e+06 ± 2.58 M⁻¹ s⁻¹	–	–	–	–	–	–	–	–	–
Evasin-3 (HEK) (natural protein, Rhipicephalus sanguineus, UniProt P0C8E8 21-86, looked up, also: extensively glycosylated) LVSTIESRTSGDGADNFDVVSCNKNCTSGQNECPEGCFCGLLGQNKKGHCYKIIGNLSGEPPVVRR	–	–	–	0.34 nM	0.00142 ± 0.36 s⁻¹	3.95e+06 ± 4.23 M⁻¹ s⁻¹	2.25 nM	0.00144 ± 0.35 s⁻¹	640000 ± 0.58 M⁻¹ s⁻¹	0.4 nM	0.00033 ± 0.11 s⁻¹	790000 ± 0.9 M⁻¹ s⁻¹
Evasin-3 (E. coli) (natural protein, Rhipicephalus sanguineus, UniProt P0C8E8 21-86, looked up) LVSTIESRTSGDGADNFDVVSCNKNCTSGQNECPEGCFCGLLGQNKKGHCYKIIGNLSGEPPVVRR	–	–	–	0.85 nM	0.00222 ± 0.49 s⁻¹	2.61e+06 ± 0.69 M⁻¹ s⁻¹	5.78 nM	0.00185 ± 0.43 s⁻¹	320000 ± 0.17 M⁻¹ s⁻¹	0.64 nM	0.00065 ± 0.25 s⁻¹	1.02e+06 ± 0.56 M⁻¹ s⁻¹

More lines, now with the values ahead:

Kd (Evasin-1)	koff (Evasin-1)	kon (Evasin-1)	Kd (CXCL1)	koff (CXCL1)	kon (CXCL1)	Kd (KC)	koff (KC)	kon (KC)	Kd (MIP-2)	koff (MIP-2)	kon (MIP-2)	Binder
0.08 nM	0.00118 ± 1.07 s⁻¹	1.56e+07 ± 16 M⁻¹ s⁻¹	–	–	–	–	–	–	–	–	–	murine MIP-1α (ligand, mouse, UniProt P10855 24-92, looked up) APYGADTPTACCFSYSRKIPRQFIVDYFETSSLCSQPGVIFLTKRNRQICADSKETWVQEYITDLELNA
0.05 nM	0.00067 ± 0.13 s⁻¹	1.32e+07 ± 2.9 M⁻¹ s⁻¹	–	–	–	–	–	–	–	–	–	CCL3L1 (ligand, human, UniProt P16619 24-93, looked up) APLAADTPTACCFSYTSRQIPQNFIADYFETSSQCSKPSVIFLTKRGRQVCADPSEEWVQKYVSDLELSA
0.12 nM	0.00243 ± 0.61 s⁻¹	1.38e+07 ± 3.54 M⁻¹ s⁻¹	–	–	–	–	–	–	–	–	–	CCL3 (ligand, human, UniProt P10147 24-92, looked up) SLAADTPTACCFSYTSRQIPQNFIADYFETSSQCSKPGVIFLTKRSRQVCADPSEEWVQKYVSDLELSA

Source: publication PMC2526197 (The Journal of Experimental Medicine, 2008)
